Here are results for six molecules from patent publication US12698507B2, “Methods and compositions for conferring and/or enhancing herbicide tolerance using protoporphyrinogen IX oxidase of various cyanobacteria or variant thereof” (FarmHannong Co., Ltd., priority 2019, dated 2026).

B1: CyPPO19 I408R + F360L: variant of CyPPO19 PPO protein (SEQ ID NO: 1) (protein)
chain: MSEVDVAIVGGGLSGLSLAWRLQQSAPQYSVVLLEASDRLGGNITTQTAEGFVWELGPNSFAPTPALLQLIAEVGLQSELIRGDRHLPRYIYWRGQLYPLQPTRPLALATSNLLSPWGKVRAALGALGFVPPYLGSGDESVNSFFRRHLGQEVAERLVAPFVSGVYAGDPQQLSAAAAFRRIAQLEKLGGGLIAGALHLRRQQAPKPKPPTSVQMRPGELGSFKEGLAALPRAIAQQLKAPIHLQTPVQEITPDPKGGYLLRSGEQTWRARSVVLATPAYQTAELVAPFQPAIARVLATIPYPTVACVVLAYPAGLGRSVRPGFGVLIPRSQGIRTLGTIWSSCLFPQRTPAGWQVFTSLIGGATDPDLASLSEEAIVQQVQQDLNRLLDLPAAKARLLGMKVWRRARPQYMVGYPEQWQQVTHALSQTPGLFLCSNYAEGVALGDRVEHGNRTAAAVAAYLSGGQP
modifications: Synthetic_PPO of Thermosynechococcus elongatus PKUAC-SCTE542 (comprising GenBank No. CP032152.1)
B2: CyPPO19 I408W + F360T: variant of CyPPO19 PPO protein (SEQ ID NO: 1) (protein)
chain: MSEVDVAIVGGGLSGLSLAWRLQQSAPQYSVVLLEASDRLGGNITTQTAEGFVWELGPNSFAPTPALLQLIAEVGLQSELIRGDRHLPRYIYWRGQLYPLQPTRPLALATSNLLSPWGKVRAALGALGFVPPYLGSGDESVNSFFRRHLGQEVAERLVAPFVSGVYAGDPQQLSAAAAFRRIAQLEKLGGGLIAGALHLRRQQAPKPKPPTSVQMRPGELGSFKEGLAALPRAIAQQLKAPIHLQTPVQEITPDPKGGYLLRSGEQTWRARSVVLATPAYQTAELVAPFQPAIARVLATIPYPTVACVVLAYPAGLGRSVRPGFGVLIPRSQGIRTLGTIWSSCLFPQRTPAGWQVFTSTIGGATDPDLASLSEEAIVQQVQQDLNRLLDLPAAKARLLGMKVWRRAWPQYMVGYPEQWQQVTHALSQTPGLFLCSNYAEGVALGDRVEHGNRTAAAVAAYLSGGQP
modifications: Synthetic_PPO of Thermosynechococcus elongatus PKUAC-SCTE542 (comprising GenBank No. CP032152.1)
B3: CyPPO19 R89A + V165C + F360V: variant of CyPPO19 PPO protein (SEQ ID NO: 1) (protein)
chain: MSEVDVAIVGGGLSGLSLAWRLQQSAPQYSVVLLEASDRLGGNITTQTAEGFVWELGPNSFAPTPALLQLIAEVGLQSELIRGDRHLPAYIYWRGQLYPLQPTRPLALATSNLLSPWGKVRAALGALGFVPPYLGSGDESVNSFFRRHLGQEVAERLVAPFVSGCYAGDPQQLSAAAAFRRIAQLEKLGGGLIAGALHLRRQQAPKPKPPTSVQMRPGELGSFKEGLAALPRAIAQQLKAPIHLQTPVQEITPDPKGGYLLRSGEQTWRARSVVLATPAYQTAELVAPFQPAIARVLATIPYPTVACVVLAYPAGLGRSVRPGFGVLIPRSQGIRTLGTIWSSCLFPQRTPAGWQVFTSVIGGATDPDLASLSEEAIVQQVQQDLNRLLDLPAAKARLLGMKVWRRAIPQYMVGYPEQWQQVTHALSQTPGLFLCSNYAEGVALGDRVEHGNRTAAAVAAYLSGGQP
modifications: Synthetic_PPO of Thermosynechococcus elongatus PKUAC-SCTE542 (comprising GenBank No. CP032152.1)
B4: CyPPO19 R89A + V165S + F360M: variant of CyPPO19 PPO protein (SEQ ID NO: 1) (protein)
chain: MSEVDVAIVGGGLSGLSLAWRLQQSAPQYSVVLLEASDRLGGNITTQTAEGFVWELGPNSFAPTPALLQLIAEVGLQSELIRGDRHLPAYIYWRGQLYPLQPTRPLALATSNLLSPWGKVRAALGALGFVPPYLGSGDESVNSFFRRHLGQEVAERLVAPFVSGSYAGDPQQLSAAAAFRRIAQLEKLGGGLIAGALHLRRQQAPKPKPPTSVQMRPGELGSFKEGLAALPRAIAQQLKAPIHLQTPVQEITPDPKGGYLLRSGEQTWRARSVVLATPAYQTAELVAPFQPAIARVLATIPYPTVACVVLAYPAGLGRSVRPGFGVLIPRSQGIRTLGTIWSSCLFPQRTPAGWQVFTSMIGGATDPDLASLSEEAIVQQVQQDLNRLLDLPAAKARLLGMKVWRRAIPQYMVGYPEQWQQVTHALSQTPGLFLCSNYAEGVALGDRVEHGNRTAAAVAAYLSGGQP
modifications: Synthetic_PPO of Thermosynechococcus elongatus PKUAC-SCTE542 (comprising GenBank No. CP032152.1)
B5: CyPPO19 R89A + A167I + F360V: variant of CyPPO19 PPO protein (SEQ ID NO: 1) (protein)
chain: MSEVDVAIVGGGLSGLSLAWRLQQSAPQYSVVLLEASDRLGGNITTQTAEGFVWELGPNSFAPTPALLQLIAEVGLQSELIRGDRHLPAYIYWRGQLYPLQPTRPLALATSNLLSPWGKVRAALGALGFVPPYLGSGDESVNSFFRRHLGQEVAERLVAPFVSGVYIGDPQQLSAAAAFRRIAQLEKLGGGLIAGALHLRRQQAPKPKPPTSVQMRPGELGSFKEGLAALPRAIAQQLKAPIHLQTPVQEITPDPKGGYLLRSGEQTWRARSVVLATPAYQTAELVAPFQPAIARVLATIPYPTVACVVLAYPAGLGRSVRPGFGVLIPRSQGIRTLGTIWSSCLFPQRTPAGWQVFTSVIGGATDPDLASLSEEAIVQQVQQDLNRLLDLPAAKARLLGMKVWRRAIPQYMVGYPEQWQQVTHALSQTPGLFLCSNYAEGVALGDRVEHGNRTAAAVAAYLSGGQP
modifications: Synthetic_PPO of Thermosynechococcus elongatus PKUAC-SCTE542 (comprising GenBank No. CP032152.1)
B6: CyPPO19 R89A + V165C + F360I: variant of CyPPO19 PPO protein (SEQ ID NO: 1) (protein)
chain: MSEVDVAIVGGGLSGLSLAWRLQQSAPQYSVVLLEASDRLGGNITTQTAEGFVWELGPNSFAPTPALLQLIAEVGLQSELIRGDRHLPAYIYWRGQLYPLQPTRPLALATSNLLSPWGKVRAALGALGFVPPYLGSGDESVNSFFRRHLGQEVAERLVAPFVSGCYAGDPQQLSAAAAFRRIAQLEKLGGGLIAGALHLRRQQAPKPKPPTSVQMRPGELGSFKEGLAALPRAIAQQLKAPIHLQTPVQEITPDPKGGYLLRSGEQTWRARSVVLATPAYQTAELVAPFQPAIARVLATIPYPTVACVVLAYPAGLGRSVRPGFGVLIPRSQGIRTLGTIWSSCLFPQRTPAGWQVFTSIIGGATDPDLASLSEEAIVQQVQQDLNRLLDLPAAKARLLGMKVWRRAIPQYMVGYPEQWQQVTHALSQTPGLFLCSNYAEGVALGDRVEHGNRTAAAVAAYLSGGQP
modifications: Synthetic_PPO of Thermosynechococcus elongatus PKUAC-SCTE542 (comprising GenBank No. CP032152.1)

For this assay, the system named is PPO-deficient BT3 E. coli (ΔPPO). Description: PPO-inhibiting herbicide tolerance test of PPO variants in E. coli (growth on herbicide-containing LB agar). In kind it is cell-based. Conditions: CyPPO19 variants in BT3 (ΔPPO) E. coli; LB agar with 0 to 2,000 μM herbicide, 37° C., dark, 16-20 hours. In short, it runs like this:
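Transformants were grown to OD600 0.5–1, adjusted to OD600=0.5 and spotted as 10-fold dilutions on LB agar with ampicillin (100 μg/mL) and 0 to 2,000 μM herbicide. Plates were kept at 37° C in the dark for 16-20 hours; growth was scored relative to wild type, one '+' per 10-fold resistance.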
For B1, the “tolerance level relative to wild type, Carfentrazone” value was “+ (‘+’ per each 10-fold resistance)”; the “tolerance level relative to wild type, Flumioxazin” value is listed as “+ (‘+’ per each 10-fold resistance)”; the “tolerance level relative to wild type, Fomesafen” value was “+ (‘+’ per each 10-fold resistance)”; the “tolerance level relative to wild type, Oxyfluorfen” value is “+ (‘+’ per each 10-fold resistance)”. Besides, the “tolerance level relative to wild type, Saflufenacil” value is reported as “+ (‘+’ per each 10-fold resistance)”; the “tolerance level relative to wild type, Sulfentrazone” value is on record as “+ (‘+’ per each 10-fold resistance)”; the “tolerance level relative to wild type, Tiafenacil” value is “++ (‘+’ per each 10-fold resistance)”.

As to B2, the “tolerance level relative to wild type, Carfentrazone” value is recorded as “+ (‘+’ per each 10-fold resistance)”; the “tolerance level relative to wild type, Flumioxazin” value is “+ (‘+’ per each 10-fold resistance)”; the “tolerance level relative to wild type, Fomesafen” value is listed as “+ (‘+’ per each 10-fold resistance)”; the “tolerance level relative to wild type, Oxyfluorfen” value was “+ (‘+’ per each 10-fold resistance)”. In addition, the “tolerance level relative to wild type, Saflufenacil” value is given as “++ (‘+’ per each 10-fold resistance)”; the “tolerance level relative to wild type, Sulfentrazone” value is given as “+ (‘+’ per each 10-fold resistance)”; the “tolerance level relative to wild type, Tiafenacil” value is on record as “++ (‘+’ per each 10-fold resistance)”.

Turning to B3, the “tolerance level relative to wild type, Carfentrazone” value was “+ (‘+’ per each 10-fold resistance)”; the “tolerance level relative to wild type, Flumioxazin” value was “++++ (‘+’ per each 10-fold resistance)”; the “tolerance level relative to wild type, Fomesafen” value is on record as “+ (‘+’ per each 10-fold resistance)”; the “tolerance level relative to wild type, Oxyfluorfen” value is “+ (‘+’ per each 10-fold resistance)”. In addition, the “tolerance level relative to wild type, Saflufenacil” value is “++++ (‘+’ per each 10-fold resistance)”; the “tolerance level relative to wild type, Sulfentrazone” value is on record as “+++ (‘+’ per each 10-fold resistance)”; the “tolerance level relative to wild type, Tiafenacil” value is listed as “++++ (‘+’ per each 10-fold resistance)”.

Regarding B4, the “tolerance level relative to wild type, Carfentrazone” value was “+ (‘+’ per each 10-fold resistance)”; the “tolerance level relative to wild type, Flumioxazin” value is “++++ (‘+’ per each 10-fold resistance)”; the “tolerance level relative to wild type, Fomesafen” value was “+++ (‘+’ per each 10-fold resistance)”; the “tolerance level relative to wild type, Oxyfluorfen” value is reported as “+++ (‘+’ per each 10-fold resistance)”. The “tolerance level relative to wild type, Saflufenacil” value is given as “++++ (‘+’ per each 10-fold resistance)”; the “tolerance level relative to wild type, Sulfentrazone” value is “+++ (‘+’ per each 10-fold resistance)”; the “tolerance level relative to wild type, Tiafenacil” value is reported as “++++ (‘+’ per each 10-fold resistance)”.

Regarding B5, the “tolerance level relative to wild type, Carfentrazone” value is reported as “+ (‘+’ per each 10-fold resistance)”; the “tolerance level relative to wild type, Flumioxazin” value was “+++++ (until ‘+++++’ as maximal resistance)”; the “tolerance level relative to wild type, Fomesafen” value is “+++ (‘+’ per each 10-fold resistance)”; the “tolerance level relative to wild type, Oxyfluorfen” value is given as “+++ (‘+’ per each 10-fold resistance)”. The “tolerance level relative to wild type, Saflufenacil” value was “+++++ (until ‘+++++’ as maximal resistance)”; the “tolerance level relative to wild type, Sulfentrazone” value is “+++++ (until ‘+++++’ as maximal resistance)”; the “tolerance level relative to wild type, Tiafenacil” value is “+++++ (until ‘+++++’ as maximal resistance)”.

With B6, the “tolerance level relative to wild type, Carfentrazone” value is reported as “+ (‘+’ per each 10-fold resistance)”; the “tolerance level relative to wild type, Flumioxazin” value is “++++ (‘+’ per each 10-fold resistance)”; the “tolerance level relative to wild type, Fomesafen” value is on record as “++ (‘+’ per each 10-fold resistance)”; the “tolerance level relative to wild type, Oxyfluorfen” value was “++ (‘+’ per each 10-fold resistance)”. For the same molecule, the “tolerance level relative to wild type, Saflufenacil” value is on record as “++++ (‘+’ per each 10-fold resistance)”; the “tolerance level relative to wild type, Sulfentrazone” value was “+++ (‘+’ per each 10-fold resistance)”; the “tolerance level relative to wild type, Tiafenacil” value is reported as “++++ (‘+’ per each 10-fold resistance)”.
